From patent publication US20160264680A1 (INSERM INSTITUT NATIONAL DE LA SANTE ET DE LA RECHERCHE …, published 2016)

B1: scFv 3G1, soluble monovalent scFv (scFv)
scFv: MAQVQLVESWGGVAQPGRSLRLSCAASGFTFSSFAMHWVRQAPGKGLEWVAVTSYDGSNEYYADSVKGRFTISRDNSKNTLYLQMNSLRAEDTAVYYCAKAMVRGVTFGDLDYWGQGTLVTVSSGGGGSGGGGSGGGGSSELTQDPAVSVALGQTVRITCQGDSLRSYYASWYQQKPEQAPVLVIYGENSRPSGIPDRFSGSSSGNTASLTITGAQAEDEADYYCNSRDSSGTHLRVFGGGTKLTVLG
notes: Expressed from phagemid pHEN in E. coli TG1, used as culture supernatant
B2: affinity matured scFv-3G1A2 displayed on yeast (scFv)
chain: MAQVQLVESWGGVAQPGRSLRLSCAASGFTFSSFAMHWVRQAPGKGLEWVAVTSYDGSNEYYADSVKGRFTISRDNSKNTLYLQMNSLRAEDTAVYYCAKAMVRGVTFGDLDYWGQGTLVTVSSGGGGSGGGGSGGGGSSELTQDPAVSVALGQTVRKTCQGDSLKSYYASWYQQKPGQAPVLVIYGENSRPSGIPDRFSGSSSGNTASLTITGAQAEDEADYYCCSRATGGYHRIFGGGTKLTVLG
B3: affinity matured scFv-2D1C7 displayed on yeast (scFv)
chain: MAQVKLQESGGGLVQPGGSLRLSCAASGFTFDSYAMSWVRQAPGKGLEWVSYITSSSSTIYYVDSVKGRFTISRDNAKNSLYLQMNSLRDEDTAVYYCARLRNSEGYWYFDLWGRGTLVTVSSGGGGSGGGGSGGGGSQSVLTQDPAVSVALGQTVRITCQGDSLRSYYASWYQQKPGQAPLLVMYGENIRPSGIPDRFSGSTSGNSASLTITGAQAEDEADYYCNSRDSSGNHLNWVFGGGTKLTVLG
B4: scFv 2D1, soluble monovalent scFv (scFv)
scFv: MAQVKLQESGGGLVQPGGSLRLSCAASGFTFDSYAMSWVRQAPGKGLEWVSYITSSSSTIYYVDSVKGRFTISRDNAKNSLYLQMNSLRDEDTAVYYCARLRNSEGYWYFDLWGRGTLVTVSSGGGGSGGGGSGGGGSQSALTQDPAVSVALGQTVRITCQGDSLRSYFASWYQQKPGQAPLLVMYGQNIRPSGIPDRFSGSSSGNSASLTITGAQAEDEADYYCNSRDSSYNHWVFGGGTKLTVLG
notes: as for B1

Assays:
[1] = target: wild type human KIT on cells (TF-1, Ba/F3-KIT, UT-7/EPO) (human) (UniProt P10721); test: cell-based or functional assay
Chain of wild type human KIT on cells (TF-1, Ba/F3-KIT, UT-7/EPO) (human) (P10721 26-976): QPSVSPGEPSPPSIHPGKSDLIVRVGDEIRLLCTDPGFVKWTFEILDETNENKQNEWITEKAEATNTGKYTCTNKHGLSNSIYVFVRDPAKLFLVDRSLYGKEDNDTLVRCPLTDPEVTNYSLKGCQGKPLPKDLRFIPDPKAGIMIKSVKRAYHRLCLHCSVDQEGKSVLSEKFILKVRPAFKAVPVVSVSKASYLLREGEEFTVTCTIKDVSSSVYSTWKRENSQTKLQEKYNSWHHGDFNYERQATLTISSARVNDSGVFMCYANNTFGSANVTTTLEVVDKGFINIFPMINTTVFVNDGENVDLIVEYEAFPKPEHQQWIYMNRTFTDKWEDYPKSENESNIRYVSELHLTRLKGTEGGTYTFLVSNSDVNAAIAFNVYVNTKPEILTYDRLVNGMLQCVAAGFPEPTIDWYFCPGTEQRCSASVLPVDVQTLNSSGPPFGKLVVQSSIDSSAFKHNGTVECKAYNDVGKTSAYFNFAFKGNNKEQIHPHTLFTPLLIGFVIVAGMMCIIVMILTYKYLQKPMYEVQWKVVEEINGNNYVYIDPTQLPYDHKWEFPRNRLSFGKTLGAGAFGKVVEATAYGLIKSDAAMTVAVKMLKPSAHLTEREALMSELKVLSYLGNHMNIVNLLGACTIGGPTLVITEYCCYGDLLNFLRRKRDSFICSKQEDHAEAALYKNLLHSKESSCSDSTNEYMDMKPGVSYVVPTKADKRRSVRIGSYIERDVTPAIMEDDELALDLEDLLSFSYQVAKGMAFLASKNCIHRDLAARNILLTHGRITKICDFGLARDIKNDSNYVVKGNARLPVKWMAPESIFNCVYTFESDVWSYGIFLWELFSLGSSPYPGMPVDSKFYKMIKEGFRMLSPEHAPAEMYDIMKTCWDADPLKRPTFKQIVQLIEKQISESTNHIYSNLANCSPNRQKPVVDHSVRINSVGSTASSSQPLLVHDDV

[2] = target: T1, recombinant soluble human KIT extracellular domain (KIT-ECD), C-terminal 6His tag (human, UniProt P10721 26-509, biotinylated in the yeast display assays (sites not given)); test: soluble scFv ELISA on KIT-ECD
T1 construct: range 26-509; Made in High Five insect cells with a baculovirus, purified on Ni-NTA; major protein of 60 kD; Monovalent; also called c-KIT ECD; recombinant KIT
T1 sequence (P10721 other isoform, or with tags, fused parts or gaps limits assumed): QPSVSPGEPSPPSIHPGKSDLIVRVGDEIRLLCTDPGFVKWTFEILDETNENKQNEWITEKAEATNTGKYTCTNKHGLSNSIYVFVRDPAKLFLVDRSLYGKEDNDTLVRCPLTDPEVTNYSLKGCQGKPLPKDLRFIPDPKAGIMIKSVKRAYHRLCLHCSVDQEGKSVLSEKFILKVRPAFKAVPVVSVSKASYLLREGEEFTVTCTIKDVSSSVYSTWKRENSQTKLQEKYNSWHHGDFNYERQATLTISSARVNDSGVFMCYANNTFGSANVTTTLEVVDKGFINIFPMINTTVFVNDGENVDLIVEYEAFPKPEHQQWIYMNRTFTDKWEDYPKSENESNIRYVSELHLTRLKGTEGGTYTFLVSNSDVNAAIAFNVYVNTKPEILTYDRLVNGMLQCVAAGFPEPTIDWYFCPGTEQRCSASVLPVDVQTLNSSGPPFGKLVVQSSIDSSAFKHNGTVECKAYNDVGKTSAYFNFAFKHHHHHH

[3] = target: T2, human KIT V560G D816V as expressed on HMC1.2 mastocytoma cells (human, UniProt P10721 26-976); test: FACS on HMC1.2 cells, soluble scFv from concentrated bacterial supernatant, detected with anti-c-myc and anti-mouse Ig-PE [panel D]
T2 construct: whole, on cells; also called endogenous KIT on HMC1.2
T2 sequence (P10721 26-976 V560G/D816V): as the sequence (P10721 26-976) above, with V535G, D791V counted along it
Experimental: (D) FACS analysis of scFv binding to HMC1.2 cells. ScFvs were induced with IPTG 1 mM overnight at 25° C. from TG1 bacterial containing pHEN phagemid. Supernatant was collected, concentrated on Amicon ultra-4 centrifugal units and incubated with HMC1.2 cells at 4° C. ScFv binding to cells was detected with an anti-c-myc antibody and anti-mouse immunoglobulins conjugated to phycoerythrin. Fluorescence was measured by FACS.
Two hundred thousand HMC1.2 cells were resuspended in 100 μL of PBS-1% FBS at 4° C. (FACS buffer). One hundred μL of culture supernatant was added to the cells during 2 hours at 4° C. Cells were washed with FACS buffer and scFv binding to cells was detected with an anti-c-myc antibody (9E10; Sigma) followed by goat anti-mouse immunoglobulins (Ig) conjugated to PE (Beckton Dickinson).

[4] = target: T1, recombinant soluble human KIT …; test: flow cytometry of yeast displaying the scFv with biotinylated KIT-ECD, streptavidin-PE

Row | Molecule | KIT surface down-regulation on UT-7/EPO cells after 1 hour (FACS with 104D2) [1] [%] | binding result [2] | binding result [3] | Kd [4] [nM]
1 | mouse SCF in CHO-KL culture supernatant (from UniProt P20826 26-190) (ligand) | 70 | – | – | –
2 | B1 | – | binds | binds | –
3 | B2 | – | – | – | 1.7
4 | B3 | – | – | – | 4.2
5 | B4 | – | binds | binds | –
